Three sequences from article PMC2957411 can be followed below.

Series [1] deals with T1, His6-HrpL (alternative sigma factor);core RNA polymerase (Epicentre) (Dickeya dadantii 3937;) (UniProt E0SE58+P0A7Z4+P0A8V2+P0A8T7+P0A800). Briefly: EMSA. In general terms: In EMSA bound probe runs differently from free probe, usually more slowly.
Series [2] has as its target T1, His6-HrpL (alternative sigma factor);core RNA polymerase (Epicentre) (Dickeya dadantii 3937;). Briefly: competition.

For the sequence “AAGTATCTGCAACGGATGCCCGCTCCGATCCCGATGCGGGCATCATGATGGATACTGGTTAATGAGTGACGCCAGCGGTGAAACGGTTCCCTGCCGTCGCCGGTTCGCCGCAAAAAAAGAAACCG (double strand) [hrpN promoter fragment with hrp box]”, in series [1], the binding entry was “binds”.
For the sequence “CTTGGTGGCTGAGTCCATCTGGCCGTCGGTGATTGAGCTGATAGCATCGGTTTTCATTTTCTGCTCCTGGGCAGCGGTGGTCATCGCCGTGGTCGATGCCATGGTTTTGTCCAGAGACTGC (double strand) [hrpA ORF internal fragment (hrpAORF), no hrp box]”, in series [2], the binding entry is reported as “no binding”.
As to “GATTTCGCTATGAACTTTGCGACTTACACAGTCATCGTGTTCATAGATTAAGTAGGAGATAATGCGAGGTGGTTCCGAAAGATATTCACTTTTTTCCCCTGGTGGTGATAACAGGATACAGCC (double strand) [hrpA promoter fragment with hrp box]”, in series [1], the binding entry is on record as “binds”.
